The values that follow come from EP4375293A1 (Max-Planck-Gesellschaft zur Förderung der Wissenschaften …, dated 2024).

For assay [1], the target named is SARS-CoV-2 wild type RBD (wt_RBD-AviHis) (SARS-CoV-2 (Wuhan/Wildtype strain)). In words: BLI, biotinylated RBD, mass transport model fit. A general note: BLI is a label-free optical method that tracks binding on a fibre tip over time.
Assay [2] addresses SARS-CoV-2 spike protein of the original Wuhan strain (SARS-CoV-2 (Wuhan/Wildtype strain), UniProt P0DTC2 14-1273). In words: cell-based or functional assay.
For assay [3], the target named is SARS-CoV-2 wild type RBD (wt_RBD-AviHis) (SARS-CoV-2 (Wuhan/Wildtype strain)). In words: BLI, biotinylated RBD, mass transport model fit. The source holds these as a separate data set.

Numbering of substitutions follows the chain as printed.

B1: Re5D06 (VHH)
VHH: QVQLVESGGGLVQPGGSLRLSCAASGITLDYYAIGWFRQAPGKEREGVSRIRSSDGSTNYADSVKGRFTMSRDNAKNTVYLQMNSLKPEDTAVYYCAYGPLTKYGSSWYWPYEYDYWGQGTQVTVSS
Regarding B1, in assay [1], the Kd (in general, the equilibrium constant for the complex coming apart) is ≤ 0.01 nM.

B2: Ma28H11 (VHH)
VHH: QVQLVESGGGLVQPGGSLRLSCATSGLTLDHYAIGWFLQAPGKEREGVACVSDDERSLYAPSVMGRFSISRDNAKKTFYLEMNSLKPEDTGVYYCASGPVVPGTLCRIPTVLGYDDWGQGTQVTVSS
notes: Monomeric VHH; also called M28H11
On to B2, for which, in assay [2], the “Lowest virus neutralizing concentration (pM; IC99)” value is 170 pM. Besides, the Kd in assay [3] was ≤ 0.01 nM.

B3: Ma28D01 (VHH)
VHH: QVQLVESGGGLVQPGGSLRLSCVVSELGLDYYQIGWFRQAPGKEREGVSCFRSSDEIRYYADSVKGRFTTFRDNAGTTVYLQMNSLKPEDTGVYYCAVAPQTYYHGTWYGECAAAGMDSWGKGTQVTVSS
notes: Monomeric VHH
As to B3, the “Lowest virus neutralizing concentration (pM; IC99)” value in assay [2] was determined as 500 pM. Further, the equilibrium dissociation constant (Kd) in assay [3] is ≤ 0.01 nM.

B4: Ma28F04 (VHH)
VHH: B3 VHH with E26D, S63P, Q125L
notes: Monomeric VHH
B4: the “Lowest virus neutralizing concentration (pM; IC99)” value in assay [2] is 500 pM. Further, in assay [3], the Kd was ≤ 0.01 nM.

B5: Re6H06 (VHH)
VHH: QVQLVESGGGLVQPGGSLRLSCAASGVTLDYYAIGWFRQAPGKEREGVSCTSSSDGSTYYADSVKGRFTISRDNAKNTVYLQMNSLKPEDTGVYYCAVVPQTYYGGKYYSQCTANGMDYWGKGTLVTVSS
In the case of B5, in assay [1], the Kd was ≤ 0.01 nM.

B6: Ma16B06 (VHH)
VHH: QVQLVESGGGLVRTGGSLRLSCAASGSILQIWAMKWYRQAPGLQREWIATIPNSGEPFYASSVEGRFTGSRENEETVYLYLNNLEPEDTAVYYCEVNEGVPVREYWGQGTQVTVSS
notes: Monomeric VHH; also called VHH Ma16B06
For B6, the “Lowest virus neutralizing concentration (pM; IC99)” value in assay [2] amounted to 1700 pM. Also, the Kd in assay [3] is ≤ 0.01 nM.

B7: Re32D03 (VHH)
VHH: QVQLVESGGGLVQPGGSLRLSCAISGITLDYYAVGWFLQAPGKEREGISCMRNWDGRTVYAPSVKGRFTISSDNAKKMVYLEMDNLKSEDTGVYYCAAGPLPPGISCRIPTPLGYDDWGQGTQVTVSS
Turning to B7, the Kd in assay [1] was ≤ 0.01 nM.

B8: Re9B09 (VHH)
VHH: QVQLVESGGGLVQPGGSLRLSCAASGFTLDYYAIGWFRQAPGKEREGVSRISSSDGSTDYADSVKGRFTISRDNAKNTVYLQMNSLKPEDTAVYYCATVPGTYYSGNWYYTWHPEAVDYWGKGTQVTVSS
Turning to B8, the Kd in assay [1] was determined as 0.03 nM.
